Measurements taken from article PMC9649962, “Early diagnosis of bladder cancer by photoacoustic imaging of tumor-targeted gold nanorods” (Photoacoustics, 2022).

Tests used:
[1] = target: Wild-type human integrin α5β1 (octyl β-D-glucopyranoside preparation) (human) (UniProt P08648); experiment: ELISA; α5β1 (4 μg/ml) coated on PVC microtiter plates; Iso4-HRP or ARA-HRP 0–400 nM in 25 mM Tris-HCl pH 7.4, 150 mM sodium chloride, 1 mM magnesium chloride, 1 mM manganese chloride, 1% BSA, 2 h; no detergent; bound peroxidase by OPD, absorbance at 490 nm; effect of urine: Iso4-HRP 300 nM mixed with human urine (11.5–90%)
[2] = system: MB49-Luc orthotopic bladder tumor; experiment: In vivo PAI of orthotopic MB49-Luc bladder tumor; set-up: species or system mouse; conditions: co-administration of excess free peptide (296 µg) with GNRs@Chit-Iso4 (1.5 nmol Au); two mice per condition
Method: All procedures and studies involving mice were approved by the Institutional Animal Care and Use Committee of San Raffaele Scientific Institute and performed according to the prescribed guidelines (IACUC, approval number 942). Female albino C57BL/6 J mice (9 weeks old, weighing about 20 g, Charles River Laboratories, Italy) were anesthetized with ketamine (80 mg/kg) and xylazine (15 mg/kg) and kept in dorsal position. Using a 24-gauge catheter, the bladder of each mouse was emptied and instilled with or without MB49-Luc cells (10^5 cells/100 μl in DPBS). Thirty minutes later the catheter was removed, and mice were allowed to recover and returned to their cage. Tumor growth was monitored by measuring the tumor volume through US imaging (see below) and in vivo bioluminescent quantification after administration of luciferin (15 mg/kg, intra peritoneum) using the non-invasive In Vivo Imaging System (IVIS, PerkinElmer, USA). […]

5637 cells = experiment: Cell adhesion to GNR-coated plates, 5637; assay type: cell-based, human; conditions: excess of free Iso4, plates coated with 250 µg/ml GNRs@Chit-Iso4
Method: (§1) The plates were washed and blocked with 2% BSA in DMEM or RPMI-1640 (200 μl/well, 1 h). MB49-Luc and 5637 cells were detached with DPBS-E, washed twice with DPBS, and suspended in DMEM or RPMI-1640 containing 0.1% BSA (binding buffer-3), and added to the coated-plates (1.5 ×10^5 cells/well, 100 μl). After 1–2 h of incubation at 37 °C, 5% CO2, the plates were washed with binding buffer-3. Adherent cells were fixed and stained with 0.5% crystal violet in 20% methanol. After washing with water, the dye was extracted from cells using a 10% acetic acid solution (140 μl/well) and the absorbance at 570 nm was measured using a microplate reader.

MB49-Luc cells = experiment: Cell adhesion to GNR-coated plates, MB49-Luc; assay type: cell-based, murine; conditions: excess of free Iso4, plates coated with 250 µg/ml GNRs@Chit-Iso4
Method: as §1

[3] = target: α5β1 integrin on murine bladder cancer MB49-Luc cells (mouse (endogenous in MB49-Luc)) (UniProt P11688)
[4] = target: α5β1 integrin on human bladder cancer 5637 cells (human (endogenous in 5637)) (UniProt P08648)
[5] = target: α5β1 integrin on murine bladder cancer MB49-Luc cells (mouse (endogenous in MB49-Luc)) (UniProt P11688); remark: listed apart in the source

Chain of UniProt P11688 (P11688 45-1053, chain 1 of 2): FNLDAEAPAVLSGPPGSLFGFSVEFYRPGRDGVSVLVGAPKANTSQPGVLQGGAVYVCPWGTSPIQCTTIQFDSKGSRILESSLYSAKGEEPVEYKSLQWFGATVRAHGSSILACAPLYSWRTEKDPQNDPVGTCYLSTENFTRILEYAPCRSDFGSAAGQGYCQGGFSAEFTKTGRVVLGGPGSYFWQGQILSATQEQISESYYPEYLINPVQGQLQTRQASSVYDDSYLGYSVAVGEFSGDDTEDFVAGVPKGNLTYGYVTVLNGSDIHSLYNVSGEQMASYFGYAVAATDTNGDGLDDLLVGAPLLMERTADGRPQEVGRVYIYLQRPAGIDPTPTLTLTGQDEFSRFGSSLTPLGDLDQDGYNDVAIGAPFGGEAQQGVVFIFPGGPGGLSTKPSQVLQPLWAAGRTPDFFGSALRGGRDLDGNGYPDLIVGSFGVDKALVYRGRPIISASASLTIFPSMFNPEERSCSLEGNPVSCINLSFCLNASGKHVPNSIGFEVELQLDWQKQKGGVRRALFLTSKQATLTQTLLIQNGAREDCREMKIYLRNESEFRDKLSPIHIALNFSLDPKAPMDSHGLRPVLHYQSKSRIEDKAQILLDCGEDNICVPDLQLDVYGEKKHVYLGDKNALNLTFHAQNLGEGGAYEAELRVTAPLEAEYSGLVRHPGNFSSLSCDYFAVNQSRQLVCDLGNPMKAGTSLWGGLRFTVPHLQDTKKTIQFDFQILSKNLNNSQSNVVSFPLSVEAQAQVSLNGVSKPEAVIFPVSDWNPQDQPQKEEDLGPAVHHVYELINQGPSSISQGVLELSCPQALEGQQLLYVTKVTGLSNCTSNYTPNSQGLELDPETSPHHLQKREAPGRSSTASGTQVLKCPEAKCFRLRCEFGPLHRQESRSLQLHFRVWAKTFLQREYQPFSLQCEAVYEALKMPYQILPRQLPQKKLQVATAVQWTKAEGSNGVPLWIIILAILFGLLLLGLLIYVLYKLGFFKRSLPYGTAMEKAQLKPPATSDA
Chain of UniProt P11688 (P09055 21-798, chain 2 of 2, further chain): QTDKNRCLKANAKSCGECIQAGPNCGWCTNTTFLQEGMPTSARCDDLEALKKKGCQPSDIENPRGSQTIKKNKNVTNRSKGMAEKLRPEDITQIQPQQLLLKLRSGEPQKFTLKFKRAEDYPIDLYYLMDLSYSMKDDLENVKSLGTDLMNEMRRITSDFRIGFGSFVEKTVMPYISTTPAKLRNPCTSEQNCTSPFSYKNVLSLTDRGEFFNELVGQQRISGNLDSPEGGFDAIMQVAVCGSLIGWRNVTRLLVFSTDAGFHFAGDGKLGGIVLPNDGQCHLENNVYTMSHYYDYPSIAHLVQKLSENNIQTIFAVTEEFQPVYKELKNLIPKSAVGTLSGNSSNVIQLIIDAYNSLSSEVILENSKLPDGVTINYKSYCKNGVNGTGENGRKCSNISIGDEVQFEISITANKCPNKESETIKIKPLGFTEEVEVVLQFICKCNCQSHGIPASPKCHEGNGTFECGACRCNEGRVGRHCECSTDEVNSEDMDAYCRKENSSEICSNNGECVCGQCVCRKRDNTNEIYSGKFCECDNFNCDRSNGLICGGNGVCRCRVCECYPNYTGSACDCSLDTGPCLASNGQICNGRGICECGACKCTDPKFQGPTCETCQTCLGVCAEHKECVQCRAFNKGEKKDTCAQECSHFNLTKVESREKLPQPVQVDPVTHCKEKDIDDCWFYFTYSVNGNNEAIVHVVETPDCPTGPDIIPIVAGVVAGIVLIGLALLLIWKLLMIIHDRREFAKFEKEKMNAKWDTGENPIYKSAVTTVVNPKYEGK
Chain of UniProt P08648 (P08648 42-1049, chain 1 of 2): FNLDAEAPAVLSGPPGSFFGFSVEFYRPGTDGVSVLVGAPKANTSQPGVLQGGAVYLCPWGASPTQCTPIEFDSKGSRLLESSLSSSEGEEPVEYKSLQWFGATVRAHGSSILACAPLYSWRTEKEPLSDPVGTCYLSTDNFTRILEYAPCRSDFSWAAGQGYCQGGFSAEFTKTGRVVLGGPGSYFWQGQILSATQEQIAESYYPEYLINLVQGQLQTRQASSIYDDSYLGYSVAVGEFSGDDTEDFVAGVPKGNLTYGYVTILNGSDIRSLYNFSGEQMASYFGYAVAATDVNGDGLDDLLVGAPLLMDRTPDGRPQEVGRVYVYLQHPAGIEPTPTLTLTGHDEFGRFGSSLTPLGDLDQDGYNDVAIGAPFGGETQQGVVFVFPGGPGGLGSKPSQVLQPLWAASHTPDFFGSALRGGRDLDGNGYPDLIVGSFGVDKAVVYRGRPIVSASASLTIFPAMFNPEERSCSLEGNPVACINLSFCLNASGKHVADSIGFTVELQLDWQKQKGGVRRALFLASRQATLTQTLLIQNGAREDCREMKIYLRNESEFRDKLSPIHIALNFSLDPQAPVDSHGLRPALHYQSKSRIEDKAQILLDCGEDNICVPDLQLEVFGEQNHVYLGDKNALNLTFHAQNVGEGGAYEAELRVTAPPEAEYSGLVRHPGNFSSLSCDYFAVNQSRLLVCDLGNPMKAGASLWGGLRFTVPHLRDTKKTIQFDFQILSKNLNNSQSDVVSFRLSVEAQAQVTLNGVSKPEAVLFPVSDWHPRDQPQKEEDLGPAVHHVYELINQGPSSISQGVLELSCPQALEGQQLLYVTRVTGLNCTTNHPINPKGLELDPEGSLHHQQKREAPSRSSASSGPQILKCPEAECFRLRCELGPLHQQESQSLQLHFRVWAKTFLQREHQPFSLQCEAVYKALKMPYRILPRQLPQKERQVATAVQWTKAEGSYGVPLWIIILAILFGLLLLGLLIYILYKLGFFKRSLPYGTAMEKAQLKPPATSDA
Chain of UniProt P08648 (P05556 21-798, chain 2 of 2, further chain): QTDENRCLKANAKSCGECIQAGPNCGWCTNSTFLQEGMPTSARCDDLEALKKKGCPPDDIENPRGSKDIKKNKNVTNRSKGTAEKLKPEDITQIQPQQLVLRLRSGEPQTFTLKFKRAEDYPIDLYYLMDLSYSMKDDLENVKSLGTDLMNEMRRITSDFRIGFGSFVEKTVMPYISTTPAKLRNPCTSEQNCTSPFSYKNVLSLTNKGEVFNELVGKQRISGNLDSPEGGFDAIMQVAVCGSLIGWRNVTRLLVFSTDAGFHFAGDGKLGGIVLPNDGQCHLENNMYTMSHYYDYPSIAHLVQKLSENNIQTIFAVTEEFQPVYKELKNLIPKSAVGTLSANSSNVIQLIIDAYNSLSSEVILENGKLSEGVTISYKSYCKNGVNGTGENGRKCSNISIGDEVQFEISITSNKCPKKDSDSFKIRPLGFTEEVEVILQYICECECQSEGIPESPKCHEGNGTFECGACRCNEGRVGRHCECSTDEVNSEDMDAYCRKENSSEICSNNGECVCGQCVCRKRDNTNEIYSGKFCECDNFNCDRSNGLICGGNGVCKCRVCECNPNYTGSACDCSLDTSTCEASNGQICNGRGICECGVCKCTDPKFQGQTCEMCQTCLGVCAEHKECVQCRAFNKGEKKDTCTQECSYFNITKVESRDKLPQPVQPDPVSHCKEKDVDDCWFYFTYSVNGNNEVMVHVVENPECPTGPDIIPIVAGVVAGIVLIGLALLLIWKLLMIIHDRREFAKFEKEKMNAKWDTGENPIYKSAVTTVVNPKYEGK

Iso4-HRP (head-to-tail cyclized peptide c(CphgisoDGRG), Iso4, conjugated to maleimide-activated horseradish peroxidase)
recovery of binding in 90% human urine [1]: 55%

c(CphgisoDGRG) (head to tail) [Iso4]
effect of free peptide on tumor binding of GNR@Chit-Iso4 [2]: reduced by co-administration of an excess of free Iso4 peptide
inhibition of cell adhesion by free peptide (5637 cells): completely inhibited cell adhesion
inhibition of cell adhesion by free peptide (MB49-Luc cells): completely inhibited cell adhesion

GNRs@Chit-Iso4 (chitosan-coated gold nanorods functionalized with Iso4 through a maleimide-PEG12-NHS linker) (peptide)
EC50 of adhesion of MB49-Luc cells to plates coated with GNRs@Chit-Iso4 [3]: 0.73 mg/L
EC50 of adhesion of 5637 cells to plates coated with GNRs@Chit-Iso4 [4]: 1.3 mg/L
increase of MB49-Luc cell adhesion to GNRs@Chit-Iso4-coated plates in DMEM containing 25–75% human urine [5]: 20%
